The source of these data is publication doi:10.1101/2022.07.09.499445 (bioRxiv, 2022).

The target of test [1] is QacA WT (tagged with GFP) (Staphylococcus aureus, UniProt P0A0J9). Put plainly: immunostaining of cells or tissue.
The target of test [2] is ICab A4, displayed on the yeast cell surface (camel). Put plainly: flow cytometry on cells.
The target in test [3] is ICab B7, displayed on the yeast cell surface (camel). Put plainly: flow cytometry on cells.
A further test concerns the target five unique clones. Put plainly: flow cytometry on cells.

B1: ICab A4, purified (VHH)
VHH: QVQLQESGGGSVQTGGSLRLSCAASGYRYSDNCVGWFRQAPGREREAVATYNSGSSTWYADSVKGRFTISQDSAKSTVYLQMNNLKPEDTAMYYCAGRNRLGSYCYMTGDFAYWGQGTQVTVSS
Consider B1, for which the binding result in test [1] is recorded as “binds”.

B2: ICab B7, purified (VHH)
VHH: QVQLQESGGGSVQAGGSLRLSCAASGYTNSRKCMGWFRQIPGKEREGVAAIYGFGRGLILYADSVKGRFTISQDNAKNTVYLQMNSLKPEDTAMYYCAADSPGSCLSRSGYNYWGQGTQVTVSS
Consider B2, for which, in test [1], the binding result is reported as “binds”.

B3: QacA_(D411N)GFP (natural protein)
chain: MISFFTKTTDMMTSKKRWTALVVLAVSLFVVTMDMTILIMALPELVRELEPSGTQQLWIVDIYSLVLAGFIIPLSAFADKWGRKKALLTGFALFGLVSLAIFFAESAEFVIAIRFLLGIAGALIMPTTLSMIRVIFENPKERATALAVWSIASSIGAVFGPIIGGALLEQFSWHSAFLINVPFAIIAVVAGLFLLPESKLSKEKSHSWDIPSTILSIAGMIGLVWSIKEFSKEGLADIIPWVVIVLAITMIVIFVKRNLSSSDPMLDVRLFKKRSFSAGTIAAFMTMFAMASVLLLASQWLQVVEELSPFKAGLYLLPMAIGDMVFAPIAPGLAARFGPKIVLPSGIGIAAIGMFIMYFFGHPLSYSTMALALILVGAGMASLAVASALIMLETPTSKAGNAAAVEESMYNLGNVFGVAVLGSLSSMLYRVFLDISSFSSKGIVGDLAHVAEESVVGAVEVAKATGIKQLANEAVTSFNDAFVATALVGGIIMIIISIVVYLLIPKSLDITKQK
With B3, the Kd amounted to 65 nM in test [2] and 100 nM in test [3]. In the test with five unique clones, the population shift was in the range of 65 to 97%.
